Positions count from the first letter of the chain named.
Columns and labels:
Conditions in all cases: both partners purified
[1] = target: T1, recombinant CHMP7 (full length, wild type) (human, UniProt Q8WUX9 1-453); test: co-IP; purified CHMP7 or S3D/S441D with HA-LEM2^CT at 1:2 in TKD buffer, overnight at 4°C; CHMP7 captured on anti-CHMP7 Dynabeads; washes with 0.05% Tween-20; blots with anti-CHMP7 and anti-HA
T1 construct: CHMP7, human, full-length open reading frame; the TEV site cleaves at the 1st methionine; In the CDK1 experiments this is the sample incubated with CDK1:CyclinB1 without ATP; also called CHMP7 wildtype; WT; source: E. coli BL21(DE3), purified (Ni-NTA, TEV cleavage, Superdex 200, monomeric fractions); not shown: 2xHis6, N-terminal, cleaved; NusA, N-terminal, cleaved
T1 sequence (looked up): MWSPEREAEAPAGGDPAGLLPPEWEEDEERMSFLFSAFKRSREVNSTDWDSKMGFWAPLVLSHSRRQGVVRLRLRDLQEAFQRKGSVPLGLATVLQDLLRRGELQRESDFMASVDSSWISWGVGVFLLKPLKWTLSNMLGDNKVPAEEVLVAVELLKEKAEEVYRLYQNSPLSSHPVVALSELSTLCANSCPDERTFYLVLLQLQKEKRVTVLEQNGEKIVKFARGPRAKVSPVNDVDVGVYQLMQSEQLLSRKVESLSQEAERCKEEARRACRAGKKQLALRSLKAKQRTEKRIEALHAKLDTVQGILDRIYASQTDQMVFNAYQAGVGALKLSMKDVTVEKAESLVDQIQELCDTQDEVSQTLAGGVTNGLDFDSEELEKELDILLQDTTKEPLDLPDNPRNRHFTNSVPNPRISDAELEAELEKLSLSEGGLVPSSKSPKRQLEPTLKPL

[2] = target: T2, recombinant CHMP7 S3D/S441D (human, UniProt Q8WUX9 1-453, S3D | S441D); test: co-sedimentation; 5 μM CHMP7 or mutant with 10 μM HA-LEM2^CT (one legend says equimolar) in TKD buffer (50 mM Tris HCl pH 8, 150 mM KCl, 1 mM DTT), room temperature for 2 hr; 22,000 x g for 40 min at 4°C; blots with anti-CHMP7 and anti-HA
T2 construct: CHMP7, human, full length with phosphomimetic residues at Ser3 and Ser441; source: E. coli BL21(DE3), purified (Ni-NTA, TEV cleavage, Superdex 200); not shown: 2xHis6, N-terminal, cleaved; NusA, N-terminal, cleaved
T2 sequence (looked up): T1 sequence (looked up) with S3D, S441D

[3] = target: T3, recombinant CHMP7 S3E/S441E (human, UniProt Q8WUX9 1-453, S3E | S441E); test: as above
T3 construct: CHMP7, human, full length with phosphomimetic residues at Ser3 and Ser441; also called CHMP7 S3E/D441E (as printed once in the methods); source: E. coli BL21(DE3), purified (Ni-NTA, TEV cleavage, Superdex 200); not shown: 2xHis6, N-terminal, cleaved; NusA, N-terminal, cleaved
T3 sequence (looked up): T1 sequence (looked up) with S3E, S441E

[4] = target: T4, CDK1-phosphorylated CHMP7 (human, UniProt Q8WUX9 1-453, phosphoserine at Ser3 and Ser441 (CDK1 sites named by the paper)); test: co-IP; CHMP7 pre-incubated with CDK1:CyclinB1 with or without 3 mM ATP, then 5 μM CHMP7 with 10 μM HA-LEM2^CT dialysed overnight at 4°C from HiSalt (250 mM KCl) into LoSalt buffer (30 mM HEPES pH 8, 25 mM KCl, 1 mM DTT); CHMP7 captured on anti-CHMP7 Dynabeads
T4 construct: CHMP7, human, full-length open reading frame, phosphorylated in vitro by CDK1:CyclinB1; also called recombinant CHMP7 incubated with CDK1 and CCNB1 in the presence of ATP; source: E. coli BL21(DE3), purified; phosphorylated in vitro with bought CDK1:CyclinB1 complex (Millipore) and 3 mM ATP; not shown: 2xHis6, N-terminal, cleaved; NusA, N-terminal, cleaved
T4 sequence (looked up): T1 sequence (looked up)

Measured: binding result

B1: recombinant HA-LEM2^CT (LEM2 C-terminal domain 395-503) (domain or fragment, human, UniProt Q8NC56 395-503, looked up)
chain: ILLKYRWRKLEEEEQAMYEMVKKIIDVVQDHYVDWEQDMERYPYVGILHVRDSLIPPQSRRRMKRVWDRAVEFLASNESRIQTESHRVAGEDMLVWRWTKPSSFSDSER
notes: LEM2 (LEMD2), human, codon-optimised synthetic gene, C-terminal domain residues 395-503; also called LEM2's C-terminus; source: E. coli BL21(DE3), purified (Ni-NTA, on-bead TEV cleavage); not shown: 2xHis6, N-terminal, cleaved; NusA, N-terminal, cleaved; HA, N-terminal, kept
binds: [1] | [2] | [3] | [4]

Source: PMC8324300, “CDK1 controls CHMP7-dependent nuclear envelope reformation” (eLife, 2021)
